Consider 3 molecules from patent publication US20100028924A1 (RAPPAPORT FAMILY INSTITUTE RESEARCH IN THE MEDICAL SCIENCES, published 2010).

The assay has as its target rHDL-apoA-I (reconstituted discoidal HDL particles carrying apolipoprotein A-I). The assay is described as follows: cell-based or functional assay.

B1: wt rePON1-192K (enzyme)
chain: MAKLTALTLLGLGLALFDGQKSSFQTRFNVHREVTPVELPNCNLVKGVDNGSEDLEILPNGLAFISSGLKYPGIMSFDPDKSGKILLMDLNEEDPVVLELGITGNTLDISSFNPHGISTFTDEDNTVYLLVVNHPDSSSTVEVFKFQEEEKSLLHLKTIRHKLLPSVNDIVAVGPEHFYATNDHYFADPYLKSWEMHLGLAWSFVTYYSPNDVRVVAEGFDFANGINISPDGKYVYIAELLAHKIHVYEKHANWTLTPLKSLDFDTLVDNISVDPVTGDLWVGCHPNGMRIFYYDPKNPPGSEVLRIQDILSEEPKVTVVYAENGTVLQGSTVAAVYKGKLLIGTVFHKALYCEL
As to B1, the “increase of cholesterol efflux from macrophages relative to rHDL-apoA-I alone” value was 93%.

B2: rePON1-192Q (enzyme)
chain: MAKLTALTLLGLGLALFDGQKSSFQTRFNVHREVTPVELPNCNLVKGVDNGSEDLEILPNGLAFISSGLKYPGIMSFDPDKSGKILLMDLNEEDPVVLELGITGNTLDISSFNPHGISTFTDEDNTVYLLVVNHPDSSSTVEVFKFQEEEKSLLHLKTIRHKLLPSVNDIVAVGPEHFYATNDHYFADPYLQSWEMHLGLAWSFVTYYSPNDVRVVAEGFDFANGINISPDGKYVYIAELLAHKIHVYEKHANWTLTPLKSLDFDTLVDNISVDPVTGDLWVGCHPNGMRIFYYDPKNPPGSEVLRIQDILSEEPKVTVVYAENGTVLQGSTVAAVYKGKLLIGTVFHKALYCEL
As to B2, the “increase of cholesterol efflux from macrophages relative to rHDL-apoA-I alone” value worked out at 30%.

B3: rePON1-192R (enzyme)
chain: MAKLTALTLLGLGLALFDGQKSSFQTRFNVHREVTPVELPNCNLVKGVDNGSEDLEILPNGLAFISSGLKYPGIMSFDPDKSGKILLMDLNEEDPVVLELGITGNTLDISSFNPHGISTFTDEDNTVYLLVVNHPDSSSTVEVFKFQEEEKSLLHLKTIRHKLLPSVNDIVAVGPEHFYATNDHYFADPYLRSWEMHLGLAWSFVTYYSPNDVRVVAEGFDFANGINISPDGKYVYIAELLAHKIHVYEKHANWTLTPLKSLDFDTLVDNISVDPVTGDLWVGCHPNGMRIFYYDPKNPPGSEVLRIQDILSEEPKVTVVYAENGTVLQGSTVAAVYKGKLLIGTVFHKALYCEL
B3: the “increase of cholesterol efflux from macrophages relative to rHDL-apoA-I alone” value is 67%.
